For data set [1], the target named is T1, IL-23 (human, p19/p40 heterodimer) (Homo sapiens, UniProt Q9NPF7;P29460 SEQ:20-189,SEQ:23-328). Nature of the data set: competition; direct +tRNA 69 nM. As to conditions: tags: R&D Systems, carrier free. As for the experimental part:
The fraction aptamer bound vs. [IL-23] was used to calculate the KD by fitting the following equation to the data: Fraction aptamer bound=amplitude*([IL-23]/(KD+[IL-23]))+background binding.
(§1) Several of the minimized constructs from the dRmY Selection 2 were also assayed in a competition format in which cold aptamer was titrated and competed away trace ³²P ATP labeled aptamer In the competition assay, the [IL-23] was held constant, the [trace labeled aptamer] was held constant, and the [unlabeled aptamer] was varied. The KD was calculated by fitting the following equation to the data: Fraction aptamer bound=amplitude*([aptamer]/(KD+[aptamer]))+background binding.

For data set [2], the target named is T1, IL-23 (human, p19/p40 heterodimer). Nature of the data set: cell_activity; TransAM STAT3, PHA blasts; Table 35 gives 1 uM for full length. As to conditions: tags: R&D Systems. How it is done: (§2) In summary, the cell-based assay was conducted by isolating the peripheral blood mononuclear cells (PBMCs) from whole blood using a Histopaque gradient (Sigma, St. Louis, Mo.). The PBMCs were cultured for 3 to 5 days at 37° C./5% CO₂ in Peripheral Blood Medium (Sigma) which contains PHA, supplemented with IL-2 (100 units/mL) (R&D Systems, Minneapolis, Minn.), to generate PHA Blasts. To test IL-23 aptamers, the PHA Blasts were washed twice with 1×PBS, then serum starved for four hours in RPMI, 0.20% FBS. After serum starvation, approximately 2 million cells were aliquotted into appropriately labeled eppendorf tubes. hIL-23 at a final constant concentration of 3 ng/mL (R&D Systems, Minneapolis, Minn.) was combined with a dilution series of various IL-23 aptamers as described in Example 1, and the cytokine/aptamer mixture was added to the aliquotted cells in a final volume of 100 μl and incubated at 37° C. for 10-12 minutes. The incubation reaction was stopped by adding 1 mL of ice-cold PBS with 1.5 mM Na₃VO₄. Cell lysates were made using the lysis buffer provided by the TransAM™ STAT 3 assay following the manufacturer's instructions. FIG. 20 depicts a flow summary of the protocol used for the cell based assay.
(§3) Full length clones from the rRfY selection described in Example 1A, and select minimized rRfY clones that were described in Example 2A. […]

The target is the same in data set [3]. Nature of the data set: cell_activity; TransAM STAT3, PHA blasts; Table 35 gives 700 nM for full length. As to conditions: tags: R&D Systems. How it is done: as §2, §3
The target is the same in data set [4]. The experiment in a line: cell_activity; TransAM STAT3, PHA blasts, 3 ng/mL hIL-23. Conditions: tags: R&D Systems. As for the experimental part: as §2, §3
Data set [5] has the same target. The experiment in a line: cell_activity; IL-23/IL-18 induced IFN-gamma, PHA blasts. Conditions: tags: R&D Systems, carrier free. As for the experimental part:
(§4) PHA Blasts were isolated and prepared as described above. Once isolated, PHA Blasts were cultured for 4 days before use (with no re-feeding the night before use). After culturing for 4 days, an appropriate number of cells (enough for 0.5×10^6 cells per well) were collected, pelleted by centrifugation and washed with RPMI 1640 and 0.2% FBS (repeated twice). These cells were then serum starved by placement into 2, 150 mm sterile culture dishes with 25 mL of RPMI 1640-0.2% FBS each for 2-3 hours. Following serum starvation, cells were plated in a 96 well microtiter plate at a density of 0.5×10^6 cells per 200 μl of serum starved media.
(§5) IL-12/IL-18 or IL-23/IL-18 was used to induce IFN-γ production in PHA Blasts as follows. 10 μl of IL-23 (R&D Systems) at a concentration of 60 ng/mL (or 10 μl of IL-12 at a concentration of 20 ng/mL), and 10 μl of IL-18 (MBL) at a concentration of 200 ng/mL were added to the appropriate wells. […] Following incubation, 200 μl of supernatant was removed from each well and either flash frozen at −80° C., or quantified immediately for IFN-γ. An ELISA kit was used to quantify the IL-23/IL-18 and IL-12/IL-18 induced IFN-γ in PHA Blasts according to the manufacturer's recommended protocol (Recombinant human IFN-γ Quantikine Kit, R&D Systems, Minneapolis, Minn.). The colorimetric readout was quantified using a 96 well plate reader and absorbance values were graphed.

Data set [6] addresses IL-12 (human, p35/p40 heterodimer) (Homo sapiens, UniProt P29459;P29460 SEQ:57-253,SEQ:23-328). Nature of the data set: cell_activity; IL-12/IL-18 induced IFN-gamma, PHA blasts. How it is done: as §4, §5
Data set [7] concerns the target T1, IL-23 (human, p19/p40 heterodimer). The experiment in a line: filter; -tRNA; competition 8 nM. Conditions: tags: R&D Systems, carrier free. As for the experimental part: These molecules were gel purified and assayed for IL-23 binding using the dot blot assay as described above and compared to each other and to the parent molecule, ARC979. An 8 point IL-23 titration (0 nM to 300 nM, 3 fold serial dilutions) was used in the binding assay.

Data set [8] has the same target. Nature of the data set: competition; direct +tRNA 117 nM. As to conditions: tags: R&D Systems, carrier free. How it is done: as §1
Table 25 below summarizes the minimized sequences and the parent clone from which they were derived, and Table 26 summarizes the binding characterization from direct binding assays (+/−tRNA) and competition binding assays for the minimized constructs tested.

A value given as a limit tells only on which side of the number the result lay.

As a reminder, the Kd is a measure of binding affinity in units of concentration. Low values mean higher affinity, high ones lower affinity. As usually defined, the IC50 is the concentration that inhibits the measured activity by half.

T1 sequence (Q9NPF7 20-189, chain 1 of 2): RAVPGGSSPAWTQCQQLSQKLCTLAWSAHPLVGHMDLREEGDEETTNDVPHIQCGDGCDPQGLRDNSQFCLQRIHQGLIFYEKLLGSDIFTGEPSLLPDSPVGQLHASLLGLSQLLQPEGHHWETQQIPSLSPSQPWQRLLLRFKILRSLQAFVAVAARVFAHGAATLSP
T1 sequence (P29460 23-328, chain 2 of 2): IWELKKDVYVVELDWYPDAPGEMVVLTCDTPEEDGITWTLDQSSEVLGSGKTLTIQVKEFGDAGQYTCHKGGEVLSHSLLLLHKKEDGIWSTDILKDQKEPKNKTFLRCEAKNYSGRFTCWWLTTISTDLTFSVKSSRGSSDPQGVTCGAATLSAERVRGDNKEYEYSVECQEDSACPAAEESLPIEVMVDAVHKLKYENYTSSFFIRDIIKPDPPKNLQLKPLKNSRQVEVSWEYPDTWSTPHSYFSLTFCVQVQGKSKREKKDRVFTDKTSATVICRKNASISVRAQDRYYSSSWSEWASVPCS
Sequence of IL-12 (human, p35/p40 heterodimer) (P29459 23-219, chain 1 of 2): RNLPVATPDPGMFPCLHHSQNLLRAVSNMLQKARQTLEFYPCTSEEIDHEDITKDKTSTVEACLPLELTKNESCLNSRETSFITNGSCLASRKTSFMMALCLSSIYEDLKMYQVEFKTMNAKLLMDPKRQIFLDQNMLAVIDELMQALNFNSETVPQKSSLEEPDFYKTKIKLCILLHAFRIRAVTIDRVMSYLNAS
Sequence of IL-12 (human, p35/p40 heterodimer) (P29460 23-328, chain 2 of 2): as the sequence (P29460 23-328, chain 2 of 2) above

In turn, GGCGGUACGGGGAGUGUGGGUUGGGGCCGG (mixed, deoxy A,G; 2'-OMe C,U) [ARC794] gave a dissociation constant Kd in data set [1] of 14 nM. This counts as double-digit nanomolar.

B1: AMX84-A10 (ssRNA)
RNA: GGGAAAAGCGAAUCAUACACAAGAAGUUUUUUGUGCUCUGAGUACUCAGCGUCCGUAAGGGAUAUGCUCCGCCAGAGACCAACCGAGAA
modifications: 2'-F C and U, 2'-OH A and G
For B1, in data set [2], 400 nM corresponded to half-maximal inhibition (IC50).

B2: AMX84-B10 (ssRNA)
RNA: GGGAAAAGCGAAUCAUACACAAGAAGUGCUUCAUGCGGCAAACUGCAUGACGUCGAAUAGAUAUGCUCCGCCAGAGACCAACCGAGAA
modifications: 2'-F C and U, 2'-OH A and G
For B2, the IC50 in data set [3] was greater than 1000 nM.

B3: AMX84-H12 family clone AMX91-H12 (ssRNA)
RNA: GGGAAAAGCGAAUCAUACACAAGACGUGUGCUUUAUGUAAACCAUAACGUUCCAUAAGGAAUAUGCUCCGCCAGAGACCAACCGAGAA
modifications: 2'-F C and U, 2'-OH A and G
Molecule B3 had an IC50 in data set [4] of 350 nM.

As for ACAGGCAAGUAAUUGGGGAGUGCGGGCGGGGUGU (mixed, ARC1623 with 5' 40 kDa PEG; 3'-idT) [ARC1988], the figures for the 50% inhibitory concentration (IC50) in data set [5] and in data set [6] were roughly 4 nM and roughly 122 nM, respectively.

B4: ARC1163 (mixed)
RNA: ACAGGCAAGUAAUUGGGGAGUGCGGGCGGGGUGU
modifications: deoxy A,G; 2'-OMe C,U; PS 21-22 [PS between 21-22; 2'-OMe C,U at 2,6,10,13,14,21,23,27,32,34; deoxy A,G at all other positions]
The molecule B4 gave a Kd in data set [7] of 49 nM.

In data set [8], GGCAAGUAAUUGGGGAGUGCGGGCGGGG (mixed, deoxy A,G; 2'-OMe C,U) [ARC792] returned a Kd of 11 nM.

The record behind these values is patent US20060193821, “Aptamers to the human IL-12 cytokine family and their use as autoimmune disease therapeutics” (published 2006).
